Reference: patent US20260193623A1 (METAGENOMI, published 2026)

Target: the molecule itself
Assay: anti-HA immunoblot of lysates of transfected HEK293T cells; band at 2x the expected size (homodimer)
Protocol: FIGS. 35A-35C depict protein expression of MG153 GII derived RTs by immunoblots. Cells were transfected with plasmids containing the candidate RTs and protein expression was evaluated by immunoblot, detecting the HA peptide fused to the N termini of the RTs. All lanes were normalized to total protein concentration. White arrows point to bands at 2× the expected molecular size of the protein, which indicate protein dimers. Lanes not relevant for the described experiment in FIGS. 35A and 35B are covered by white boxes. FIG. 35C: Multiple sequence alignment of GII derived RT. The region shown corresponds to positions 196 through 201 of the alignment. The dimerization motif CAQQ (SEQ ID NO: 2267) is highlighted.
In order to understand protein expression and stability of the GII RTs in mammalian cells, immunoblots were performed. Briefly, transfected cells were lysed with RIPA lysis buffer supplemented with protease inhibitors (80 μL per well in a 24 well format). The lysate was centrifuged at 14,000 g for 10 min at 4° C. in order to remove insoluble aggregates. Proteins were quantified using BCA. […] Proteins were detected by using a rabbit HA antibody, using an HRP-based detection method. […] The expression of each protein was quantified and cDNA synthesis activity was normalized to total protein expression: seven MG153 RTs outperformed the TGIRT control (FIG. 36).

Row | Protein | binding result
1 | MG153-9 (enzyme, Group II intron class C RT, expressed in HEK293T cells as a Flag-HA-MCP fusion (expected 72 kDa including the tag); not shown: N-terminal Flag-HA-MCP tag) MESYLTQDRAEPEAGCGANSVSDTEGDGRTVQHDLVEEVVSWSNLEAALKQVVSNRGAPGVDGMTVDELGPWLETNYSELAEKVRNGRYRPNPVRRKEIPKPNGGVRDLGIPTVVDRLLQQAVSQVLMPIYEPSFSDTSYGFRPGRSAHDAIQKAKEYLSEGFGYVVDLDLARFFDTLNQDYLMNILRERVRDKALLELIKRFLRSGVVLPNGLLRETREGSPQGGPLSPLLSNIYLDRFDKLLESRGLRFVRYADDCLVFVRTPRAGERVRESVTRYLEGTLRLRVNQEKTVVGRADQVKFLGFRLYRQKTVGATVHDSSLARFRKEVRRITKRNRGTSLGSVLTELKTFTRGWVGYFRIGLSKSRAEKLDGWIRQRVRQYIFKQWKTLRNRASQLVSLCPDYLRPRPGFTPYSWVRECRRAAFSRSYWKAVNYPVVKRALSNSYLAGLGLYSLSEQLEKWNKGV | binds
2 | MG153-4 (enzyme, Group II intron class C RT, expressed in HEK293T cells as a Flag-HA-MCP fusion (expected 67.6 kDa including the tag); not shown: N-terminal Flag-HA-MCP tag) MDTSSLMEQILSKENLNEAYLQVVRNKGAAGVDGMSVEELGPYLSENGENIREQMRTRKYKPQPVRRVEIPKPDGGVRNLGVPTVVDRFVQQAVAQVLSPIFEEQFHDHSYGFRPNRCAQQAVLKALEMMNDGHNWIVDIDLAKFFDTVDHDKLMTIFGRTIKDGDVISLVRKFLVSGVMIDDEYEDTIVGTPQGGNISPLLANIMLNELDKELEARGLDFVRYADDLIIMVGSRQAAERVMKSVTRFIENKLGLKVNAEKSRVDKPKGIKYLGFGFYFDSFAKGYKARPHMKAVEKFKEQMKKLTCRSWGVSNTYKVKKLNQLIRGWINYFKIGSMKNLCRKLDAHIRFRLRMCIWKQWKTPKNREKNLIKLGLPRYAAHGISYAKGYARVCRSWNLHISISKERLAKFGLISMEDYYAERRVTC | binds
